Measured values from patent publication US20020143164A1, “Ras activator nucleic acid molecules, polypeptides and methods of use” (priority 1999, published 2002).

Legend:
Ras [1] = assay: In vitro GEF assay (32P-α-GTP binding to Ras); type: biochemical
Procedure: Full length (GRF4) or CDC25-deleted (ΔCDC25) GRF4, or GRF2, each Flag-tagged, were immunoprecipitated from transfected Hek-293T cells using anti Flag antibodies. Equal amounts of immunoprecipitates were washed with GEF lysis buffer, equilibrated with GEF assay buffer and incubated with 32P-α-GTP (diluted in cold GTP) plus 100 ng of Ras for 30 min. Bound and unbound radiolabelled GTP were then separated by filtration, and the amount of bound GTP determined by scintillation counting, as detailed in the Method section. Fold Ras activation was compared to the activation of Ras in the absence of GRFs (which was set to 1).
GRF4 has a RasGRF(GEF) activity/function. To show its GEF activity, we performed in-vitro GEF assays. Briefly, GST-Ras was added alone (tubes 1 and 2) or along with GST-CDC25, or immunoprecipitated full-length of GRF4 (tubes 3 and 4). All tubes contained assay mixture including cold GTP and P32 alpha GTP. The exchange reactions were stopped at the indicated times. The stopped reaction mixtures were passed through nitrocellulose filters which were then washed with stop buffer to separate bound and unbound nucleotides. Filters were dried and then quantified by scintillation counting to determine bound CPM. The labeled nucleotides trapped on the washed filters were assumed to be Ras-associated. The difference in bound CPM over 30 minute period was determined for reactions where GST-Ras was added alone (it is the difference in bound CPM between tubes 1 and 2) and where GST-Ras was added with a GEF (it is the difference in bound CPM between tubes 3 and 4).

Ras [2] = conditions: reference 23; cited from earlier work
Ras [3] = assay: Ras activation assay in living cells, GRF4 and deletion mutants expressed in HEK-293T cells; type: cell-based, human; conditions: HEK-293T cells treated with 8-Br-cAMP
Procedure: HEK-293T cells were transfected with vector alone, GRF4 (WT), GRF4 lacking its cNMP-BD (ΔcNMP-BD) or its CDC25 domain (ΔCDC25), and then treated (or not) with 8-Br-cAMP. Cell lysates were then incubated with GST-Raf1-RBD to precipitate active Ras, and immunobloited with anti Ras antibodies as above (upper panel). Lower panels are controls for total endogenous Ras and transfected GRF4 or its mutants.
Flag, HA or myc tags was added to the N-terminus of full length GRF4 using PCR, and subcloned into the mammalian expression vector pCMV5 (Invitrogen). Mutants GRF4 with deletion of the CDC25 domain (residue 711-1007, GRF4DCDC25 or DCDC25 for short), the cNMP-BD (residue 134-254, DcNMP-BD), the PLPF motif in the PDZ domain (residue 396-399, -PLPF), or bearing mutations in the PDZ-binding motif (SAV to AAA), were generated using PCR. The GST-GRF4-cNMP-BD (residue 101-303) and GST-Carboxy-terminus (residue 1348-1499) were PCR-generated and cloned into pGEX-2T ( Pharmacia). The latter construct was used to generate a fusion protein (GST-GRF4C terminus) which was used to immunize rabbits for the generation of polyclonal anti GRF4 antibodies.
HEK-293T cells were transfected as above, serum starved overnight and then subjected to various treatments, as described in the text. […] GTP in the lysates was determined using activation specific probes as described. Briefly, to determined the levels of active Ras (Ras-GTP) in cell, sepharose-bound GST fusion protein of the Ras-binding domain (RBD) of Raf-1 (GST-Raf1-RBD; Upstate Biotechnology Inc.) was used to precipitate Ras-GTP from cell lysates, and the amount of Ras-GTP determined by immunoblotting with anti Ras antibodies (Quality Biotech). Similarly, to determine the level of Rap1-GTP in cell lysates, sepharose-bound GST fusion proteins of the Rap1-binding domain of RaIGDS (GST-RaIGDS-RBD) were used to precipitate Rap1-GTP, which was then detected on a Western blot using anti-Rap1 antibodies (Transduction Lab).

B1: GRF2: Flag-tagged full-length RasGRF2, positive control GEF for Ras (protein, UniProt O14827 1-1237, looked up)
chain: MQKSVRYNEGHALYLAFLARKEGTKRGFLSKKTAEASRWHEKWFALYQNVLFYFEGEQSCRPAGMYLLEGCSCERTPAPPRAGAGQGGVRDALDKQYYFTVLFGHEGQKPLELRCEEEQDGKEWMEAIHQASYADILIEREVLMQKYIHLVQIVETEKIAANQLRHQLEDQDTEIERLKSEIIALNKTKERMRPYQSNQEDEDPDIKKIKKVQSFMRGWLCRRKWKTIVQDYICSPHAESMRKRNQIVFTMVEAESEYVHQLYILVNGFLRPLRMAASSKKPPISHDDVSSIFLNSETIMFLHEIFHQGLKARIANWPTLILADLFDILLPMLNIYQEFVRNHQYSLQVLANCKQNRDFDKLLKQYEANPACEGRMLETFLTYPMFQIPRYIITLHELLAHTPHEHVERKSLEFAKSKLEELSRVMHDEVSDTENIRKNLAIERMIVEGCDILLDTSQTFIRQGSLIQVPSVERGKLSKVRLGSLSLKKEGERQCFLFTKHFLICTRSSGGKLHLLKTGGVLSLIDCTLIEEPDASDDDSKGSGQVFGHLDFKIVVEPPDAAAFTVVLLAPSRQEKAAWMSDISQCVDNIRCNGLMTIVFEENSKVTVPHMIKSDARLHKDDTDICFSKTLNSCKVPQIRYASVERLLERLTDLRFLSIDFLNTFLHTYRIFTTAAVVLGKLSDIYKRPFTSIPVRSLELFFATSQNNRGEHLVDGKSPRLCRKFSSPPPLAVSRTSSPVRARKLSLTSPLNSKIGALDLTTSSSPTTTTQSPAASPPPHTGQIPLDLSRGLSSPEQSPGTVEENVDNPRVDLCNKLKRSIQKAVLESAPADRAGVESSPAADTTELSPCRSPSTPRHLRYRQPGGQTADNAHCSVSPASAFAIATAAAGHGSPPGFNNTERTCDKEFIIRRTATNRVLNVLRHWVSKHAQDFELNNELKMNVLNLLEEVLRDPDLLPQERKAAANILRALSQDDQDDIHLKLEDIIQMTDCMKAECFESLSAMELAEQITLLDHVIFRSIPYEEFLGQGWMKLDKNERTPYIMKTSQHFNDMSNLVASQIMNYADVSSRANAIEKWVAVADICRCLHNYNGVLEITSALNRSAIYRLKKTWAKVSKQTKALMDKLQKTVSSEGRFKNLRETLKNCNPPAVPYLGMYLTDLAFIEEGTPNFTEEGLVNFSKMRMISHIIREIRQFQQTSYRIDHQPKVAQYLLDKDLIIDEDTLYELSLKIEPRLPA
modifications: full-length Flag tag
notes: Flag-tagged full-length RasGRF2, positive control GEF for Ras
Fold Ras activation in vitro (activation without GRFs set to 1) (Ras [1]; immunoprecipitated Flag-tagged protein, 100 ng Ras, 30 min): 4.5 fold
Binding to nucleotide-bound forms of Ras, similar experiments (Ras [2]): bind only to EDTA-treated Ras

B2: isolated CDC25 domain of GRF4: Isolated CDC25 catalytic domain of GRF4 (protein)
chain: SLLQLSTVEVATQLSMRNFELFRNIEPTEYIDDLFKLRSKTSCANLKRFEEVINQETFWVASEILRETNQLKRMKIIKHFIKIALHCRECKNFNSMFAIISGLNLAPVARLRTTWEKLPNKYEKLFQDLQDLFDPSRNMAKYRNVLNSQNLQPPIIPLFPVIKKDLTFLHEGNDSKVDGLVNFEKLRMIAKEIRHVGRMASVNMDPALMFRTRKKKWRSLGSLSQGSTNATVLDVAQTGGHKKRVRRSSFLNAKKLYEDAQMARKVKQYLSNLELEMDEESLQTLSLQCEPATNT
In vitro GEF activity on Ras (Ras [1]): unable to demonstrate significant activation

B3: ACDC25: Mutant GRF4 with deletion of the CDC25 domain (residue 711-1007) (protein)
chain: MKPLAIPANHGVMGQQEKHSLPADFTKLHLTDSLHPQVTHVSSSHSGCSITSDSGSSSLSDIYQATESEAGDMDLSGLPETAVDSEDDDDEEDIERASDPLMSRDIVRDCLEKDPIDRTDDDIEQLLEFMHQLPAFANMTMSVRRELCAVMVFAVVERAGTIVLNDGEELDSWSVILNGSVEVTYPDGKAEILCMGNSFGVSPTMDKEYMKGVMRTKVDDCQFVCIAQQDYCRILNQVEKNMQKVEEEGEIVMVKEHRELDRTGTRKGHIVIKGTSERLTMHLVEEHSVVDPTFIEDFLLTYRTFLSSPMEVGKKLLEWFNDPSLRDKVTRVVLLWVNNHFNDFEGDPAMTRFLEEFENNLEREKMGGHLRLLNIACAAKAKRRLMTLTKPSREAPLPFILLGGSEKGFGIFVDSVDSGSKATEAGLKRGDQILEVNGQNFENIQLSKAMEILRNNTHLSITVKTNLFVFKELLTRLSEEKRNGAPHLPKIGDIKKASRYSIPDLAVDVEQVIGLEKVNKKSKANTVGGRNKLKKILDKTRISILPQKPYNDIGIGQSQDDSIVGLRQTKHIPTALPVSGTLSSSNPDLLQSHHRILDFSATPDLPDQVLRVFKADQQSRYIMISKDTTAKEVVIQAIREFAVTATPDQYSLCEVSVTPEGVIKQRRLPDQLSKLADRIQLSGRYYLKNNMETETLCSDEDAQELLRESQPKNPGDKKPVKSETSPVAPRAGSQQKAQSLPQPQQQPPPAHKINQGLQVPAVSLYPSRKKVPVKDLPPFGINSPQALKKILSLSEEGSLERHKKQAEDTISNASSQLSSPPTSPQSSPRKGYTLAPSGTVDNFSDSGHSEISSRSSIVSNSSFDSVPVSLHDERRQRHSVSIVETNLGMGRMERRTMIEPDQYSLGSYAPMSEGRGLYATATVISSPSTEELSQDQGDRASLDAADSGRGSWTSCSSGSHDNIQTIQHQRSWETLPFGHTHFDYSGDPAGLWASSSHMDQIMFSDHSTKYNRQNQSRESLEQAQSRASWASSTGYWGEDSEGDTGTIKRRGGKDVSIEAESSSLTSVTTEETKPVPMPAHIAVASSTTKGLIARKEGRYREPPPTPPGYIGIPITDFPEGHSHPARKPPDYNVALQRSRMVARSSDTAGPSSVQQPHGHPTSSRPVNKPQWHKPNESDPRLAPYQSQGFSTEEDEDEQVSAV
8-Br-cAMP-mediated activation of Ras via the construct, compared with wt-GRF4 (Ras [3]): almost abolished
